Experimental data from patent US9717715B2.

Key:
[1] = target: c-Met on human cancer cells (human) (UniProt P08581)
[2] = target: c-Met on human cancer cells (human) (UniProt P08581); remark: listed apart in the source

- Akt phosphorylation (%) in Caki-1 cells, 5 ug/ml, 30 min [1]: 100%
Substance: antibody 5D5 (ATCC Cat. # HB11895)
- relative cell viability (%) of MKN45 cells, 72 h [2]: 53%
